According to patent US20110086767A1, “MUTANTS OF GLYCOSIDE HYDROLASES AND USES THEREOF FOR SYNTHESIZING COMPLEX OLIGOSACCHARIDES AND DISACCHARIDE INTERMEDIATES” (Institut Pasteur, priority 2008, published 2011):
“Also recorded” adds a separate entry of the source.

Assay: Kinetic parameters towards sucrose donor
Assay type: biochemical
Procedure: Enzyme assays were carried out in a total volume of 2 mL containing pure enzyme (0.073 mg, 0.153 mg and 0.092 mg when using A289P-F290C, A289P-F2901 and A289P-F290L, respectively).
Kinetic studies of AS variants were performed in the presence of sucrose (0-500 mM). At regular time intervals (2-5 min), aliquots (200 μL) were removed, heated (95° C., 2 min) and centrifuged (18000 g, 5 min) All the samples were filtered on a 0.22 μm membrane and analyzed using HPLC material previously described. The initial rate of sucrose consumed, corresponding to the initial rate of fructose released, was expressed in mole of fructose released per minute and per gram of enzyme. The kinetic parameters kcat and Km were calculated using Eadie-Hofstee plot.

B1: F290K: single mutant F290K of N. polysaccharea amylosucrase 1G5A (protein)
chain: SPNSQYLKTRILDIYTPEQRAGIEKSEDWRQFSRRMDTHFPKLMNELDSVYGNNEALLPMLEMLLAQAWQSYSQRNSSLKDIDIARENNPDWILSNKQVGGVCYVDLFAGDLKGLKDKIPYFQELGLTYLHLMPLFKCPEGKSDGGYAVSSYRDVNPALGTIGDLREVIAALHEAGISAVVDFIFNHTSNEHEWAQRCAAGDPLFDNFYYIFPDRRMPDQYDRTLREIFPDQHPGGFSQLEDGRWVWTTFNSFQWDLNYSNPWVFRAMAGEMLFLANLGVDILRMDAVAKIWKQMGTSCENLPQAHALIRAFNAVMRIAAPAVFFKSEAIVHPDQVVQYIGQDECQIGYNPLQMALLWNTLATREVNLLHQALTYRHNLPEHTAWVNYVRSHDDIGWTFADEDAAYLGISGYDHRQFLNRFFVNRFDGSFARGVPFQYNPSTGDCRVSGTAAALVGLAQDDPHAVDRIKLLYSIALSTGGLPLIYLGDEVGTLNDDDWSQDSNKSDDSRWAHRPRYNEALYAQRNDPSTAAGQIYQDLRHMIAVRQSNPRFDGGRLVTFNTNNKHIIGYIRNNALLAFGNFSEYPQTVTAHTLQAMPFKAHDLIGGKTVSLNQDLTLQPYQVMWLEIA
Question: Which “V250mM (initial rate of sucrose consumption)” value (250 mM sucrose) does the source give for B1 here?
Answer: 110 µmol/min/g

Question: And the “behaviour (at high concentration)” value (sucrose donor alone)?
Answer: no kinetic saturation; also recorded: linear
